Reference: publication PMC4252739 (Cell host & microbe, 2014)

Legend:
[1] = target: HIV-1 CA A14C/E45C cross-linked tubular assemblies (HIV-1); experiment: co-sedimentation
SEC [2] = target: the molecule itself; experiment: SEC
SEC [3] = target: the molecule itself; experiment: SEC; remark: listed apart in the source

Row | Binder | binding specificity (percent of input co-pelleted, background corrected) [1] [%] | further results
1 | MxB-HA K663D (natural protein) MSKAHKPWPYRRRSQFSSRKYLKKEMNSFQQQPPPFGTVPPQMMFPPNWQGAEKDAAFLAKDFNFLTLNNQPPPGNRSQPRAMGPENNLYSQYEQKVRPCIDLIDSLRALGVEQDLALPAIAVIGDQSSGKSSVLEALSGVALPRGSGIVTRCPLVLKLKKQPCEAWAGRISYRNTELELQDPGQVEKEIHKAQNVMAGNGRGISHELISLEITSPEVPDLTIIDLPGITRVAVDNQPRDIGLQIKALIKKYIQRQQTINLVVVPCNVDIATTEALSMAHEVDPEGDRTIGILTKPDLMDRGTEKSVMNVVRNLTYPLKKGYMIVKCRGQQEITNRLSLAEATKKEITFFQTHPYFRVLLEEGSATVPRLAERLTTELIMHIQKSLPLLEGQIRESHQKATEELRRCGADIPSQEADKMFFLIEKIKMFNQDIEKLVEGEEVVRENETRLYNKIREDFKNWVGILATNTQKVKNIIHEEVEKYEKQYRGKELLGFVNYKTFEIIVHQYIQQLVEPALSMLQKAMEIIQQAFINVAKKHFGEFFNLNQTVQSTIEDIKVKHTAKAENMIQLQFRMEQMVFCQDQIYSVVLKKVREEIFNPLGTPSQNMKLNSHFPSNESSVSSFTEIGIHLNAYFLETSKRLANQIPFIIQYFMLRENGDSLQDAMMQILQEKNRYSWLLQEQSETATKRRILKERIYRLTQARHALCQFSSKEIH | 27 | 
2 | MBP-MxB_(1-715 IK/DD) (natural protein, UniProt P20592 1-715, looked up) MSKAHKPWPYRRRSQFSSRKYLKKEMNSFQQQPPPFGTVPPQMMFPPNWQGAEKDAAFLAKDFNFLTLNNQPPPGNRSQPRAMGPENNLYSQYEQKVRPCIDLIDSLRALGVEQDLALPAIAVIGDQSSGKSSVLEALSGVALPRGSGIVTRCPLVLKLKKQPCEAWAGRISYRNTELELQDPGQVEKEIHKAQNVMAGNGRGISHELISLEITSPEVPDLTIIDLPGITRVAVDNQPRDIGLQIKALIKKYIQRQQTINLVVVPCNVDIATTEALSMAHEVDPEGDRTIGILTKPDLMDRGTEKSVMNVVRNLTYPLKKGYMIVKCRGQQEITNRLSLAEATKKEITFFQTHPYFRVLLEEGSATVPRLAERLTTELIMHIQKSLPLLEGQIRESHQKATEELRRCGADIPSQEADKMFFLDEKIKMFNQDIEKLVEGEEVVRENETRLYNKIREDFKNWVGILATNTQKVKNIIHEEVEKYEKQYRGKELLGFVNYKTFEIIVHQYIQQLVEPALSMLQKAMEIIQQAFINVAKKHFGEFFNLNQTVQSTIEDIKVKHTAKAENMIQLQFRMEQMVFCQDQIYSVVLKKVREEIFNPLGTPSQNMKLNSHFPSNESSVSSFTEIGIHLNAYFLETSKRLANQIPFIIQYFMLRENGDSLQDAMMQILQEKNRYSWLLQEQSETATKRRILKERIYRLTQARHALCQFSSKEIH | 40 | stoichiometry N (SEC [2]): 2
3 | MxB-HA E681A (natural protein) MSKAHKPWPYRRRSQFSSRKYLKKEMNSFQQQPPPFGTVPPQMMFPPNWQGAEKDAAFLAKDFNFLTLNNQPPPGNRSQPRAMGPENNLYSQYEQKVRPCIDLIDSLRALGVEQDLALPAIAVIGDQSSGKSSVLEALSGVALPRGSGIVTRCPLVLKLKKQPCEAWAGRISYRNTELELQDPGQVEKEIHKAQNVMAGNGRGISHELISLEITSPEVPDLTIIDLPGITRVAVDNQPRDIGLQIKALIKKYIQRQQTINLVVVPCNVDIATTEALSMAHEVDPEGDRTIGILTKPDLMDRGTEKSVMNVVRNLTYPLKKGYMIVKCRGQQEITNRLSLAEATKKEITFFQTHPYFRVLLEEGSATVPRLAERLTTELIMHIQKSLPLLEGQIRESHQKATEELRRCGADIPSQEADKMFFLIEKIKMFNQDIEKLVEGEEVVRENETRLYNKIREDFKNWVGILATNTQKVKNIIHEEVEKYEKQYRGKELLGFVNYKTFEIIVHQYIQQLVEPALSMLQKAMEIIQQAFINVAKKHFGEFFNLNQTVQSTIEDIKVKHTAKAENMIQLQFRMEQMVFCQDQIYSVVLKKVREEIFNPLGTPSQNMKLNSHFPSNESSVSSFTEIGIHLNAYFLETSKRLANQIPFIIQYFMLRENGDSLQKAMMQILQEKNRYSWLLQAQSETATKRRILKERIYRLTQARHALCQFSSKEIH | 9.8 | 
4 | MxB-HA Y651D (natural protein) MSKAHKPWPYRRRSQFSSRKYLKKEMNSFQQQPPPFGTVPPQMMFPPNWQGAEKDAAFLAKDFNFLTLNNQPPPGNRSQPRAMGPENNLYSQYEQKVRPCIDLIDSLRALGVEQDLALPAIAVIGDQSSGKSSVLEALSGVALPRGSGIVTRCPLVLKLKKQPCEAWAGRISYRNTELELQDPGQVEKEIHKAQNVMAGNGRGISHELISLEITSPEVPDLTIIDLPGITRVAVDNQPRDIGLQIKALIKKYIQRQQTINLVVVPCNVDIATTEALSMAHEVDPEGDRTIGILTKPDLMDRGTEKSVMNVVRNLTYPLKKGYMIVKCRGQQEITNRLSLAEATKKEITFFQTHPYFRVLLEEGSATVPRLAERLTTELIMHIQKSLPLLEGQIRESHQKATEELRRCGADIPSQEADKMFFLIEKIKMFNQDIEKLVEGEEVVRENETRLYNKIREDFKNWVGILATNTQKVKNIIHEEVEKYEKQYRGKELLGFVNYKTFEIIVHQYIQQLVEPALSMLQKAMEIIQQAFINVAKKHFGEFFNLNQTVQSTIEDIKVKHTAKAENMIQLQFRMEQMVFCQDQIYSVVLKKVREEIFNPLGTPSQNMKLNSHFPSNESSVSSFTEIGIHLNAYFLETSKRLANQIPFIIQDFMLRENGDSLQKAMMQILQEKNRYSWLLQEQSETATKRRILKERIYRLTQARHALCQFSSKEIH | < 0.1 | 
5 | MBP-MxB_(1-715 IKM/DDD) (natural protein, UniProt P20592 1-715, looked up) MSKAHKPWPYRRRSQFSSRKYLKKEMNSFQQQPPPFGTVPPQMMFPPNWQGAEKDAAFLAKDFNFLTLNNQPPPGNRSQPRAMGPENNLYSQYEQKVRPCIDLIDSLRALGVEQDLALPAIAVIGDQSSGKSSVLEALSGVALPRGSGIVTRCPLVLKLKKQPCEAWAGRISYRNTELELQDPGQVEKEIHKAQNVMAGNGRGISHELISLEITSPEVPDLTIIDLPGITRVAVDNQPRDIGLQIKALIKKYIQRQQTINLVVVPCNVDIATTEALSMAHEVDPEGDRTIGILTKPDLMDRGTEKSVMNVVRNLTYPLKKGYMIVKCRGQQEITNRLSLAEATKKEITFFQTHPYFRVLLEEGSATVPRLAERLTTELIMHIQKSLPLLEGQIRESHQKATEELRRCGADIPSQEADKMFFLDEKIKMFNQDIEKLVEGEEVVRENETRLYNKIREDFKNWVGILATNTQKVKNIIHEEVEKYEKQYRGKELLGFVNYKTFEIIVHQYIQQLVEPALSMLQKAMEIIQQAFINVAKKHFGEFFNLNQTVQSTIEDIKVKHTAKAENMIQLQFRMEQMVFCQDQIYSVVLKKVREEIFNPLGTPSQNMKLNSHFPSNESSVSSFTEIGIHLNAYFLETSKRLANQIPFIIQYFMLRENGDSLQDAMDQILQEKNRYSWLLQEQSETATKRRILKERIYRLTQARHALCQFSSKEIH |  | stoichiometry N (SEC [2]): 2
6 | MxB-HA M666D (natural protein) MSKAHKPWPYRRRSQFSSRKYLKKEMNSFQQQPPPFGTVPPQMMFPPNWQGAEKDAAFLAKDFNFLTLNNQPPPGNRSQPRAMGPENNLYSQYEQKVRPCIDLIDSLRALGVEQDLALPAIAVIGDQSSGKSSVLEALSGVALPRGSGIVTRCPLVLKLKKQPCEAWAGRISYRNTELELQDPGQVEKEIHKAQNVMAGNGRGISHELISLEITSPEVPDLTIIDLPGITRVAVDNQPRDIGLQIKALIKKYIQRQQTINLVVVPCNVDIATTEALSMAHEVDPEGDRTIGILTKPDLMDRGTEKSVMNVVRNLTYPLKKGYMIVKCRGQQEITNRLSLAEATKKEITFFQTHPYFRVLLEEGSATVPRLAERLTTELIMHIQKSLPLLEGQIRESHQKATEELRRCGADIPSQEADKMFFLIEKIKMFNQDIEKLVEGEEVVRENETRLYNKIREDFKNWVGILATNTQKVKNIIHEEVEKYEKQYRGKELLGFVNYKTFEIIVHQYIQQLVEPALSMLQKAMEIIQQAFINVAKKHFGEFFNLNQTVQSTIEDIKVKHTAKAENMIQLQFRMEQMVFCQDQIYSVVLKKVREEIFNPLGTPSQNMKLNSHFPSNESSVSSFTEIGIHLNAYFLETSKRLANQIPFIIQYFMLRENGDSLQKAMDQILQEKNRYSWLLQEQSETATKRRILKERIYRLTQARHALCQFSSKEIH | 26 | 
7 | MxB_(84YRGK) (6xHis-MxB residues 84-715 with YRGK487-490AAAA) (domain or fragment) GPENNLYSQYEQKVRPCIDLIDSLRALGVEQDLALPAIAVIGDQSSGKSSVLEALSGVALPRGSGIVTRCPLVLKLKKQPCEAWAGRISYRNTELELQDPGQVEKEIHKAQNVMAGNGRGISHELISLEITSPEVPDLTIIDLPGITRVAVDNQPRDIGLQIKALIKKYIQRQQTINLVVVPCNVDIATTEALSMAHEVDPEGDRTIGILTKPDLMDRGTEKSVMNVVRNLTYPLKKGYMIVKCRGQQEITNRLSLAEATKKEITFFQTHPYFRVLLEEGSATVPRLAERLTTELIMHIQKSLPLLEGQIRESHQKATEELRRCGADIPSQEADKMFFLIEKIKMFNQDIEKLVEGEEVVRENETRLYNKIREDFKNWVGILATNTQKVKNIIHEEVEKYEKQAAAAELLGFVNYKTFEIIVHQYIQQLVEPALSMLQKAMEIIQQAFINVAKKHFGEFFNLNQTVQSTIEDIKVKHTAKAENMIQLQFRMEQMVFCQDQIYSVVLKKVREEIFNPLGTPSQNMKLNSHFPSNESSVSSFTEIGIHLNAYFLETSKRLANQIPFIIQYFMLRENGDSLQKAMMQILQEKNRYSWLLQEQSETATKRRILKERIYRLTQARHALCQFSSKEIH |  | percent co-sedimented with CA [1]: 9%
8 | MxB_(84YRGK/M574D) (domain or fragment, UniProt P20592 84-715, looked up) GPENNLYSQYEQKVRPCIDLIDSLRALGVEQDLALPAIAVIGDQSSGKSSVLEALSGVALPRGSGIVTRCPLVLKLKKQPCEAWAGRISYRNTELELQDPGQVEKEIHKAQNVMAGNGRGISHELISLEITSPEVPDLTIIDLPGITRVAVDNQPRDIGLQIKALIKKYIQRQQTINLVVVPCNVDIATTEALSMAHEVDPEGDRTIGILTKPDLMDRGTEKSVMNVVRNLTYPLKKGYMIVKCRGQQEITNRLSLAEATKKEITFFQTHPYFRVLLEEGSATVPRLAERLTTELIMHIQKSLPLLEGQIRESHQKATEELRRCGADIPSQEADKMFFLIEKIKMFNQDIEKLVEGEEVVRENETRLYNKIREDFKNWVGILATNTQKVKNIIHEEVEKYEKQAAAAELLGFVNYKTFEIIVHQYIQQLVEPALSMLQKAMEIIQQAFINVAKKHFGEFFNLNQTVQSTIEDIKVKHTAKAENMIQLQFRDEQMVFCQDQIYSVVLKKVREEIFNPLGTPSQNMKLNSHFPSNESSVSSFTEIGIHLNAYFLETSKRLANQIPFIIQYFMLRENGDSLQKAMMQILQEKNRYSWLLQEQSETATKRRILKERIYRLTQARHALCQFSSKEIH |  | binding result (SEC [3]): binds
